Measured values from the nanobody polyreactivity screen of Harvey et al. (2022).

Experiment: yeast display, Sf9 membrane polyspecificity reagent, FACS + sequencing; frameworks hold sequencing errors
Outline: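 Nanobodies from a synthetic yeast display library (Saccharomyces cerevisiae BJ5465), induced 36–48 hours with galactose, were stained 1 hour at 4 °C with 10% biotinylated, detergent-solubilized Sf9 membrane reagent, enriched on streptavidin microbeads, then FACS-sorted. Anti-HA (expression) and streptavidin (reagent binding) fluorescence set low and high (top ~1%) gates. Polyreactivity labels come from the gate of origin. Genes were colony-PCR amplified, MiSeq 2 × 250 sequenced and filtered by CDR length.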
With “QVQLVDSGGGLVQAGGSLRLSCAASGITFDHYAMGWSRQAPGKEREFVAAIDDIGGDTYYADSVKGRFTISRDNAKNTVYLQMNSLKPEATAVYYCAADYGYYSRFYYWGQGTQVTVSS” the “polyreactivity (PSR sort gate)” value was “low polyreactivity”. In the case of “QVQLVDSGGGLVQAGGSLRLSCAASGITFYDYTMGWYRQAPGKERELVAAITSSGVSTYYADSVKGRFTISRDNAKNTVYLQMNSLKPEDTAVYYCAADLYEDPNGEDDYWGQGTQVTVSS”, the “polyreactivity (PSR sort gate)” value is reported as “low polyreactivity”. In the case of “QVQLVDSGGGLVQAGGSLRLSCAASGITFYYYAMGSYRQAPGKETELVAAISSRGGSTYYADSVKGRFTISRDNAKNTVYFQMNSLKQEDTAVYYCAADYYSSYYSSYIKSYYWGLGTQVTVSS”, the “polyreactivity (PSR sort gate)” value is reported as “high polyreactivity”. For “QVQLVDSGGGLVQAGGSLRLSCAASGITLSWYAKGWYRQAPGQERELVAGISGRGGRTYYADSVKGRFTISRDNAKNTVYLQMNSLKPEDTAVYYCAAVSPGYRSYDYWGQGTQVTVSS”, the “polyreactivity (PSR sort gate)” value was “high polyreactivity”. In the case of “QVQLVDSGGGLVQAGGSLRLSCAASGITLYRYVMRWYRQAPGKESELVADISGRGTSTYYADSVKGPFTISRDNAKNTVYLQMNSLKPEDTAVYYCNAEYTKTGALVIPYTYYYAEDYWGQGTQVTVSS”, the “polyreactivity (PSR sort gate)” value is reported as “low polyreactivity”. With “QVQLVDSGGGLVQAGGSLRLSCAASGLIFAYYAMGWYRKAPGKERELVAAISSVGSTYYADSVKGRFTISRDNAKNTVYLQMNSLKPEDTSVYYCAAALYPYYWPEYNYWGQGTQVTVSS” the “polyreactivity (PSR sort gate)” value was “high polyreactivity”. In the case of “QVQLVDSGGGLVQAGGSLRLSCAASGLIFSDYAMGWYRPAPGKERELVAAIRSGGRTYYADSVKGRFTISRDNATNTVYLEMNSLKPEDTAVYFCNKLYRRYPVPREYDYWGQGTQVTVSS”, the “polyreactivity (PSR sort gate)” value is reported as “high polyreactivity”. With “QVQLVDSGGGLVQAGGSLRLSCAASGLIFYHNTMGWSRQAPGKEREFVASISQSGGSTYYADSVKGRFTISRDNAKNTVYLQMNSLKPEDTAVYYCAKKVRRWRTMDYWGQGTQVTVSS” the “polyreactivity (PSR sort gate)” value was “high polyreactivity”. For “QVQLVDSGGGLVQAGGSLRLSCAASGLTFGFNAMGWYRQAPGKERELVAAISSGGSTYYADSVKGRFTISRDNAKNTVYLQMNSLKPEDTAVYYCATSVRQYGRTTYYYWGQGTQVTVSS”, the “polyreactivity (PSR sort gate)” value was “high polyreactivity”. In the case of “QVQLVDSGGGLVQAGGSLRLSCAASGLTFRYYAMGWYRQAPGKERELVASISWSGASTYYADSVKGRFTISRDNAKNTVYLQMNSLKPEDTAVYYCNAGYFGSYDYWGQGTQVTVSS”, the “polyreactivity (PSR sort gate)” value is reported as “high polyreactivity”. For “QVQLVDSGGGLVQAGGSLRLSCAASGLTFSKYAMGWYRQAPGKERELVATITRRGSSTYYADSVKGRFTISRDNAKNTVYLQMNSLKPEDTAVYYCNAVGVRRAIGYPSQTEYGYWGQGTQVTVSS”, the “polyreactivity (PSR sort gate)” value was “high polyreactivity”. For “QVQLVDSGGGLVQAGGSLRLSCAASGNILRKYAMGWYRQAPGKERELVAAISSSGGRTYYADSVKGRFTISRDNAKNTVYLQMYSLKPEDTAVYYCAKDPYGRLQPRPRFGYWGQGTQVTVTS”, the “polyreactivity (PSR sort gate)” value was “high polyreactivity”. For “QVQLVDSGGGLVQAGGSLRLSCAASGRIFDRNAMGWYRQAPGKERDLVARIDPGDDTNYADSVKGRFTISRDNAKNTVYLQMNSQKPEDTAVYYCATDPDYVLYRTAYYEYDYWGQGTQVTVSS”, the “polyreactivity (PSR sort gate)” value was “low polyreactivity”. In the case of “QVQLVDSGGGLVQAGGSLRLSCAASGRIFGQYAMGWYRDATGKERELVAAISWRGGTTYYADSVKGRFTISRDNAKNTVYLQMNSLKPEDTAVFYCNADVWVYPYDYWGQGTQVTVSS”, the “polyreactivity (PSR sort gate)” value is reported as “low polyreactivity”. In the case of “QVQLVDSGGGLVQAGGSLRLSCAASGRIFKWTAMGWYRPAPGKERELVAAIRWSSGRTYYADSVKGRFTISRDNAKNTVYLQMNSLKPEDTAVSYCAANNGYGMDYWGQGTQVTVSS”, the “polyreactivity (PSR sort gate)” value is reported as “high polyreactivity”. For “QVQLVDSGGGLVQAGGSLRLSCAASGRIFRPYAMGWYREAPRKERELVAAISFSGGSTYYADSVKGRFTISRDNAKNTVYLQMNSVKPEDTAVYYCNAVFINKYGKYGDWGQGTQVTVSS”, the “polyreactivity (PSR sort gate)” value was “high polyreactivity”. With “QVQLVDSGGGLVQAGGSLRLSCAASGRIFSRYAMGGYRQAPGKERQLVAAITIGGRTNYADSVKGRFTFSRDNAKNTVYLQMNSLKPEDSAVYYCAVVLYTRYPPRVRYYYWGQGTQVTVSW” the “polyreactivity (PSR sort gate)” value was “high polyreactivity”. With “QVQLVDSGGGLVQAGGSLRLSCAASGRIFYQNAMGWYRQAPGKETELVADNSSGGSTYYADSVKGRFTISRDNAKNTVYLQMNSLKPEDNAVYYCNTPSGPGTVGSYRRKWYGYWGQGTQLTVSS” the “polyreactivity (PSR sort gate)” value was “low polyreactivity”. With “QVQLVDSGGGLVQAGGSLRLSCAASGRIFYYYAMGWYRQAPGKEREFVAAINSRDGSTNYADSVKGRFTISRDNAKNTVYLQMNSLKPEDTAVYYCAAEGYRSWRGLRSRYYYWGQGTQVTVSS” the “polyreactivity (PSR sort gate)” value was “high polyreactivity”. In the case of “QVQLVDSGGGLVQAGGSLRLSCAASGRIIGGKAMGWYRLAPGKVREFVAAIRASGGSPHYADSVKGRFTISRDNAKNTVYLQRNSLTPEDTEVYYCNALSRNTHLYDYWGQGTHVTVSS”, the “polyreactivity (PSR sort gate)” value is reported as “high polyreactivity”. For “QVQLVDSGGGLVQAGGSLRLSCAASGRPSVLMLMGWYRQAPGKERELVAAIDDSTDTTYYADSVKGRFTISRDNAKNTVYLQMNSLKPEDTAVYYCAAEEGYVKFSGSWSYGYDYWGQGTQVTVSS”, the “polyreactivity (PSR sort gate)” value was “high polyreactivity”. In the case of “QVQLVDSGGGLVQAGGSLRLSCAASGRTFAYNDMGWYRQAPGKERELVAAISWSDGTTYYADSVKWRFTISRDNAKNTVYLQMNRLKPEDTAVYYCAAVSIYWGQGTQVTVSS”, the “polyreactivity (PSR sort gate)” value is reported as “low polyreactivity”. In the case of “QVQLVDSGGGLVQAGGSLRLSCAASGRTFGVYAIGWYRQAPGKERELVAAITSGGSTNYADSVKGLLTISRDNANNTVYLQMNSLKPEDTAVYYCAARYKAYWQLYDYWGQGTQVTVSS”, the “polyreactivity (PSR sort gate)” value is reported as “high polyreactivity”. For “QVQLVDSGGGLVQAGGSLRLSCAASGRTFKRYDMGWYRQAPGKEREFVAAISWTGGSTYYADTVKGRFTISRDHAKNSVYLQMNSLKPEDTAVYYCARKFLWQGFVYWGQGTQVTVSS”, the “polyreactivity (PSR sort gate)” value was “low polyreactivity”. With “QVQLVDSGGGLVQAGGSLRLSCAASGRTFKRYDMGWYRQAPRKEREFVAAISWTGGSTYYADTVKGRFTISRDNEKNTVYLQMNSLKPEDTAVYYCARKFLWKGFDYWGQGTQVTVSS” the “polyreactivity (PSR sort gate)” value was “low polyreactivity”. In the case of “QVQLVDSGGGLVQAGGSLRLSCAASGRTFNWYAMGWYRQETRKERELVAAISSTGGSTYYADSVKGRFTISRDNAKNTVYLQMNSLKPEDTAVYYCAAALPGYGDYYYWGQGTQVTVSS”, the “polyreactivity (PSR sort gate)” value is reported as “high polyreactivity”. In the case of “QVQLVDSGGGLVQAGGSLRLSCAASGRTFQFYVMGWYRQAPGKERELVASIRSGGSTNYADSVKGRFTISRDNAKNTVYLQMNSLKPEDTAVYYCATESYPADQDIPGSDYWGQGTQVTVSS”, the “polyreactivity (PSR sort gate)” value is reported as “low polyreactivity”. For “QVQLVDSGGGLVQAGGSLRLSCAASGRTFRYYAMGWYRQAPGKERELVATITGSGGSTYYADSVKGRFTISRDNAKNTVYLQLISLKPEDTAVYYCNARKVRYPYRWYDYWGQGTQVTVSS”, the “polyreactivity (PSR sort gate)” value was “high polyreactivity”. In the case of “QVQLVDSGGGLVQAGGSLRLSCAASGRTFSGNAMGWYRQAPGKERELVAAIRGGGSTYYADSVKGRFTISRDNAKNTVYLQMNSLKPEDTAVYYCAGRSQVYAPAYYRSKYDYWGQGTQVTVSS”, the “polyreactivity (PSR sort gate)” value is reported as “high polyreactivity”. In the case of “QVQLVDSGGGLVQAGGSLRLSCAASGRTFVPYAMGWYRQAPGKERELVAAISSGGDTNYADSVKGRFTISRDNAKNTVYLQMTSLKPEDTAVYYCNADSYYYVYGYDMGYWGQGTQVTVSS”, the “polyreactivity (PSR sort gate)” value is reported as “low polyreactivity”. With “QVQLVDSGGGLVQAGGSLRLSCAASGRTFYDNDMGWYRQAPGKERELVARIRRGGNTKYADSVKGRFTISRDNAKNTVYLQMNSLKPEDTAVYYCNRDYGSKIYDYWGQGSQVTVSS” the “polyreactivity (PSR sort gate)” value was “low polyreactivity”. With “QVQLVDSGGGLVQAGGSLRLSCAASGRTIRYNAMGWYRQAPGKERELVAVINSNGGSTYYADSVKGRFTISRDNSKNTVYLQMNSLKPEDTAVYYCAADYIRIQEYDYWGQGTQVTVSS” the “polyreactivity (PSR sort gate)” value was “low polyreactivity”.
